Measured values: publication PMC4520770

Assays:
Test in all cases: fluorescence polarisation
KL6-7_Y4eK = target: KL6-7_Y4eK
KL6-7_D3fA = target: KL6-7_D3fA
Bim_A2eT_E2gG = Bim_A2eT_E2gG (UniProt O43521)
[1] = target: Bim BH3 peptide (23 residues, fluoresceinated) (UniProt O43521)
Bim_A2eT = Bim_A2eT (UniProt O43521)
Bim_R3bS = Bim_R3bS (UniProt O43521)
BL6-22_Y4eK = target: BL6-22_Y4eK

Bcl-w (human), c-myc-tagged, sequence (Q92843 whole entry): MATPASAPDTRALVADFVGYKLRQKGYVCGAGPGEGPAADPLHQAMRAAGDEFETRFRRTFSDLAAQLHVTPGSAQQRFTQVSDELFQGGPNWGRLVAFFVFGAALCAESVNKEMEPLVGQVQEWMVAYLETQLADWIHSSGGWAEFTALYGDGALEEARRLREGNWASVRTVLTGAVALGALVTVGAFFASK
Bfl-1 (human), c-myc-tagged, sequence (Q16548 whole entry): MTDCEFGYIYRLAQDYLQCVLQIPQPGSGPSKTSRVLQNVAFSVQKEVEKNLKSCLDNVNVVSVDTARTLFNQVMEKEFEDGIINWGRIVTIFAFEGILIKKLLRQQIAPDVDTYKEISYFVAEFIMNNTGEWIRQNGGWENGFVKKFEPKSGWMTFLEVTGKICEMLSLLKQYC

Substance: Mcl-1 (human), c-myc-tagged (from UniProt Q07820 1-350) (natural protein)
- Kd (KL6-7_Y4eK): 7800 nM
- Kd (KL6-7_D3fA): > 5000 nM
- Kd (Bim_A2eT_E2gG): 1.6 nM
- Kd [1]: < 1 nM
- Kd (Bim_A2eT): 0.62 nM
- Kd (Bim_R3bS): < 1 nM

Substance: Bcl-2 (human), c-myc-tagged (from UniProt P10415 1-239) (natural protein)
- Kd (Bim_A2eT_E2gG): 150 nM
- Kd (Bim_A2eT): 44 nM
- Kd (Bim_R3bS): 7.2 nM

Substance: Bcl-w (human), c-myc-tagged (from UniProt Q92843 1-193) (natural protein)
- Kd (Bim_A2eT_E2gG): 98 nM
- Kd (Bim_A2eT): 40 nM
- Kd (Bim_R3bS): 18 nM

Substance: BHRF1 (Epstein-Barr virus Bcl-2 homolog), c-myc-tagged (from UniProt P03182 1-191) (natural protein)
- Kd (KL6-7_Y4eK): > 1000 nM
- Kd (KL6-7_D3fA): > 1000 nM
- Kd (Bim_A2eT_E2gG): > 1000 nM
- Kd (BL6-22_Y4eK): 30 nM
- Kd (Bim_A2eT): 64 nM

Substance: KSBcl-2 (Kaposi's sarcoma-associated herpesvirus Bcl-2 homolog), c-myc-tagged (from UniProt P90504 1-175) (natural protein)
- Kd (Bim_A2eT_E2gG): 1.1 nM
- Kd (Bim_A2eT): 1.8 nM
- Kd (Bim_R3bS): 1.5 nM

Substance: Bfl-1 (human), c-myc-tagged (from UniProt Q16548 1-175) (natural protein)
- Kd (Bim_A2eT_E2gG): 260 nM
- Kd (Bim_A2eT): 32 nM
- Kd (Bim_R3bS): 5.2 nM

Substance: Bcl-xL (human), c-myc-tagged (from UniProt Q07817-1 1-233) (natural protein)
- Kd (Bim_A2eT_E2gG): 42 nM
- Kd (Bim_A2eT): 18 nM
- Kd (Bim_R3bS): 3.8 nM

Substance: M11 (murine gamma herpesvirus γHV68 Bcl-2 homolog), BAP- and His6-tagged (from UniProt P89884 1-171) (natural protein)
- Kd (Bim_A2eT_E2gG): 15 nM
- Kd (Bim_A2eT): 78 nM
